Results taken from patent US20260069728A1, “MULTI-TARGETING COMPOUND AND USE THEREOF” (Chengdu Shetai Medical Technology Co., Ltd., priority 2023, published 2026).
Like-named read-outs stand apart in the source and are kept apart here. *1 amine or outer side, *2 acyl side, *3 side chain or, on linkers, in order; H or OH if unused. Where a SMILES comes first, the peptide text is derived from it. Bridges are numbered along the chain shown (N, C = ends). [ ]: non-standard residue; d: D form. The star is where a group is joined. X1 = N#C[C@@H]1CC(F)(F)CN1C(=O)CNC(=O)c1ccnc2ccc(OCCCN3CCN(*)CC3)cc12; DOTA = O=C(O)CN1CCN(CC(=O)O)CCN(CC(=O)*)CCN(CC(=O)O)CC1; 2Nal = N[C@@H](Cc1ccc2ccccc2c1)C(=O)O; Cit = NC(=O)NCCC[C@H](N)C(=O)O; Suc = O=C(CCC(=O)[*:2])[*:1]; AEEA = NCCOCCOCC(=O)O

Key:
[1] = tested on: subcutaneous xenograft tumors (U87 MG cells); assay: Small animal PET imaging and biodistribution study; assay type: in vivo, NSG mice
Procedure: Eleven NSG mice bearing subcutaneous xenograft tumors (U87 MG cells), with tumor sizes approximately 150 mm^3, were used. The mice were intravenously injected via the tail vein with approximately 7.4 MBq of ^68Ga-labeled SDYD01, SDYD02, SDYD03. SDYD04, SDYD05, SDYD06, SDYD07, SDYD08 or SDYD07-1 compounds, or with ^[…]-labeled FAPI-04 or FAP2286 compounds as tracers. Micro PET/CT imaging was performed at 30 min, 60 min, and 120 min post-injection. Static images were acquired in 3D mode for 20 minutes. Reconstruction was performed using the OSEM3D/MAP method to obtain attenuation-corrected PET/CT fusion images.
NSG mice bearing subcutaneous xenograft tumors (U87 MG cells) were divided into 3 groups, with 11 mice in each group. They were intravenously injected via the tail vein with ^68Ga-labeled SDYD01, SDYD02, SDYD03. SDYD04, SDYD05, SDYD06. SDYD07, SDYD08, or SDYD07-1 compounds, or with ^68Ga-labeled FAPI-04 or FAP2286 compounds as tracers. Tumor-bearing mice injected with ^68Ga-labeled compounds SDYD01, SDYD02, SDYD03, SDYD04, SDYD05, SDYD06, FAPI-04, as well as 68Ga-labeled compounds FAPI-04 and FAP2286, were euthanized at 30 min. 60 min, and 120 min, respectively, for each group. Tumor-bearing mice injected with ^68Ga-labeled compounds SDYD07, SDYD08, and SDYD07-1 were euthanized at 30 min, 60 min, and 90 min, respectively, for each group. Blood, tumors, and other major organs and tissues were collected, weighed, and measured for radioactivity. After radioactive decay correction, the standardized uptake value (SUV) and percentage injected dose per gram of tissue (% ID/g) were calculated. In these figures, (a) represents the PET/CT imaging results, (b) represents the biodistribution results, and (c) represents the relative ratios of radioactive uptake in tumor versus normal tissues.

[2] = Stability of radioligands in PBS buffer (radio-HPLC); assay type: physicochemical
Procedure: The purpose of this experiment was to test the stability of the radioligands under buffer conditions simulating the physiological environment. This stability is a prerequisite for further animal experiments.
(§1) 1. ^68Ga-SDYD01: ^68Ga-SDYD01 was added to PBS buffer (pH=7.4) and incubated at 37° C. The mixture samples were taken for radio-HPLC analysis after 0.5 hours, 1 hour, and 2 hours of incubation. The stability of ^68Ga-SDYD01 in PBS buffer: the radiochemical purities of ^68Ga-SDYD01 after incubation in PBS for 0.5 hours, 1 hour, and 2 hours were 98%, 97%, and 97%, respectively (FIG. 4).
(§2) 2. ^177Lu-SDYD01: ^177Lu-SDYD01 was added to PBS buffer (pH=7.4) and incubated at 37° C. The mixture samples were taken for radio-HPLC analysis after 24 hours, 48 hours, and 120 hours of incubation. The stability of ^177Lu-SDYD01 in PBS buffer: the radiochemical purities of ^177Lu-SDYD01 after incubation in PBS for 24 hours, 48 hours, and 120 hours were 97%, 96%, and 94%, respectively (FIG. 5).
as §1, with “^68Ga-SDYD02: ^68Ga-SDYD02” for “^68Ga-SDYD01: ^68Ga-SDYD01”, “^68Ga-SDYD02” for “^68Ga-SDYD01”, “96%, 95%” for “98%, 97%,”, “93%,” for “97%,”, “10).” for “4).”
as §2, with “^177Lu-SDYD02: ^177Lu-SDYD02” for “^177Lu-SDYD01: ^177Lu-SDYD01”, “^177Lu-SDYD02” for “^177Lu-SDYD01”, “95%, 91%” for “97%, 96%,”, “87%,” for “94%,”, “11).” for “5).”
as §1, with “1. ^68Ga-SDYD05: ^68Ga-SDYD05” for “1. ^68Ga-SDYD01: ^68Ga-SDYD01”, “of ^68Ga-SDYD05” for “of ^68Ga-SDYD01”, “98%, 96%” for “98%, 97%,”, “and 95%,” for “and 97%,”, “(FIG. 16).” for “(FIG. 4).”
as §2, with “^177Lu-SDYD05: ^177Lu-SDYD05” for “^177Lu-SDYD01: ^177Lu-SDYD01”, “^177Lu-SDYD05” for “^177Lu-SDYD01”, “97%, 96% and” for “97%,”, “96%,” for “96%, and 94%,”, “17).” for “5).”
1. ^68Ga-SDYD06: ^68Ga-SDYD06 was added to PBS buffer (pH=7.4) and incubated at 37° C. The mixture samples were taken for radio-HPLC analysis after 0.5, 1, and 2 hours of incubation. The stability of ^68Ga-SDYD06 in PBS buffer: the radiochemical purities of ^68Ga-SDYD06 after incubation in PBS for 0.5 hours, 1 hour, and 2 hours were 96%, 94% and 93%, respectively (FIG. 22).
2. ^177Lu-SDYD06: ^177Lu-SDYD06 was added to PBS buffer (pH=7.4) and incubated at 37° C. The mixture samples were taken for radio-HPLC analysis after 24 hours, 48 hours, and 120 hours of incubation.
1. ^68Ga-SDYD03: ^68Ga-SDYD03 was added to PBS buffer (pH=7.4) and incubated at 37° C. The mixture samples were taken for radio-HPLC analysis after 0.5 hours, 1 hour, and 2 hours of incubation. The stability of ^68Ga-SDYD03 PBS in PBS buffer: the radiochemical purities of ^68Ga-SDYD03 after incubation in PBS for 0.5 hours, 1 hour, and 2 hours were 96%, 96% and 95%, respectively (FIG. 27).
as §2, with “^177Lu-SDYD03: ^177Lu-SDYD03” for “^177Lu-SDYD01: ^177Lu-SDYD01”, “^177Lu-SDYD03” for “^177Lu-SDYD01”, “are 99%, 96%” for “were 97%, 96%,”, “28). […]” for “5).”

[3] = PBS buffer pH=7.4, 37° C., 0.5 hours
[4] = PBS buffer pH=7.4, 37° C., 1 hour
[5] = PBS buffer pH=7.4, 37° C., 2 hours

SMILES | radioactive uptake in the tumor sites (in words) ([1]; mouse, in vivo) | stability in PBS buffer (in words) [2] | radiochemical purity after incubation in PBS [2, 3] | radiochemical purity after incubation in PBS [2, 4] | radiochemical purity after incubation in PBS [2, 5] | radioactive uptake in the tumor sites (in words) ([1]; tail vein injection, U87 MG tumor-bearing NSG mice) | stability in PBS buffer (in words) ([2]; PBS buffer pH=7.4, 37° C.)
N#C[C@@H]1CC(F)(F)CN1C(=O)CNC(=O)c1ccnc2ccc(OCCCN3CCN(C(=O)CCC(=O)N[C@@H](CCCCNC(=O)CN4CCN(CC(=O)O)CCN(CC(=O)O)CCN(CC(=O)O)CC4)C(=O)NCCOCCOCC(=O)NCCOCCOCC(=O)N[C@@H](CCCNC(=N)N)C(=O)N[C@@H](CCCNC(=N)N)C(=O)N[C@@H](Cc4ccc5ccccc5c4)C(=O)N[C@H]4CSSC[C@@H](C(=O)N[C@@H](CCCNC(=N)N)C(N)=O)NC(=O)[C@H](CCCNC(N)=O)NC(=O)[C@H](CCCNC(=N)N)NC(=O)[C@H](Cc5ccc(O)cc5)NC(=O)[C@@H]5CCCN5C(=O)[C@H](CCCCN)NC(=O)[C@H](CCCCN)NC(=O)[C@H](CCCNC(N)=O)NC(=O)[C@H](Cc5ccc(O)cc5)NC4=O)CC3)cc12 [^68Ga-SDYD01, metal not drawn] ({X1-Suc}-K(DOTA)[AEEA][AEEA]RR[2Nal]CY[Cit]KKPYR[Cit]CR-NH2; disulfide 7-16) | significant radioactive uptake in the tumor sites | quite stable in PBS buffer | 98% | 97% | 97% |  | 
CCCCCC(=O)N[C@H]1CSCc2cc(CSCCNC(=O)[C@H](CCCCNC(=O)CN3CCN(CC(=O)O)CCN(CC(=O)O)CCN(CC(=O)O)CC3)NC(=O)COCCOCCNC(=O)COCCOCCNC(=O)CCN3C(=O)CC(SCCNC(=O)CCC(=O)NCc4ccc(NC(=O)COCC(=O)N[C@H](Cc5ccccc5)C(=O)N[C@@H](CCC(N)=O)C(=O)N[C@@H](Cc5c[nH]c6ccccc56)C(=O)N[C@@H](C)C(=O)N[C@H](C(=O)NCC(=O)N[C@@H](Cc5c[nH]cn5)C(=O)NC(CC(C)C)CC(C)C)C(C)C)cc4)C3=O)cc(c2)CSC[C@@H](C(=O)O)NC(=O)[C@H](Cc2ccccc2)NC(=O)[C@H](CCC(N)=O)NC(=O)C([C@@H](C)O)NC(=O)[C@@H]2CCCN2C(=O)[C@@H]2CCCN2C1=O (stereo partly shown) [^68Ga-SDYD04, metal not drawn] |  |  | 97% | 97% | 95% | significant radioactive uptake in the tumor sites | quite stable in PBS buffer
